# According to IntAct's records for PubMed 33053321:
# B1: Signal recognition particle subunit SRP54 (Homo sapiens), P61011 (parent)
# chain: MVLADLGRKITSALRSLSNATIINEEVLNAMLKEVCTALLEADVNIKLVKQLRENVKSAIDLEEMASGLNKRKMIQHAVFKELVKLVDPGVKAWTPTKGKQNVIMFVGLQGSGKTTTCSKLAYYYQRKGWKTCLICADTFRAGAFDQLKQNATKARIPFYGSYTEMDPVIIASEGVEKFKNENFEIIIVDTSGRHKQEDSLFEEMLQVANAIQPDNIVYVMDASIGQACEAQAKAFKDKVDVASVIVTKLDGHAKGGGALSAVAATKSPIIFIGTGEHIDDFEPFKTQPFISKLLGMGDIEGLIDKVNELKLDDNEALIEKLKHGQFTLRDMYEQFQNIMKMGPFSQILGMIPGFGTDFMSKGNEQESMARLKKLMTIMDSMNDQELDSTDGAKVFSKQPGRIQRVARGSGVSTRDVQELLTQYTKFAQMVKKMGGIKGLFKGGDMSKNVSQSQMAKLNQQMAKMMDPRVLHHMGGMAGLQSMMRQFQQGAAGNMKGMMGFNNM
# partner: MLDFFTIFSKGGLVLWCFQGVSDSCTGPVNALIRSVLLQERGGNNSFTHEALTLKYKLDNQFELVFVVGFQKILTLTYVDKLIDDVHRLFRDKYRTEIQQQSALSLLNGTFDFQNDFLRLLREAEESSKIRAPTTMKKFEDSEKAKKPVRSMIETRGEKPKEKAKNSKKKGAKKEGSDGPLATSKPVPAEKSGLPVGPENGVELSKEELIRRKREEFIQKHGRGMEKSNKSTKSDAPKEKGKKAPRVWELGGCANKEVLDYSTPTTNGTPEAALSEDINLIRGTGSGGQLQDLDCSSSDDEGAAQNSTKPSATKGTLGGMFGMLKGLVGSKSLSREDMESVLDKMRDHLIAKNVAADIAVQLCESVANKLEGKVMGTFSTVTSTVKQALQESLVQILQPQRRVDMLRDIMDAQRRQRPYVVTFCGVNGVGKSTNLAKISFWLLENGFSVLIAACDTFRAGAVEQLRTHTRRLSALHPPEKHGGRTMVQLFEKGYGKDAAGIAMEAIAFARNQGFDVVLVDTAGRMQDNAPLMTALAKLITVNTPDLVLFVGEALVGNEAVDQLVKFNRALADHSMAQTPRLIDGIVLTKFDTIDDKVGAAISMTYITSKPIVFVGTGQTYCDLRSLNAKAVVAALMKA
# B2: Signal recognition particle subunit SRP54 (Saccharomyces cerevisiae), P20424 (parent)
# chain: MVLADLGKRINSAVNNAISNTQDDFTTSVDVMLKGIVTALLESDVNIALVSKLRNNIRSQLLSENRSEKSTTNAQTKKLIQKTVFDELCKLVTCEGSEEKAFVPKKRKTNIIMFVGLQGSGKTTSCTKLAVYYSKRGFKVGLVCADTFRAGAFDQLKQNAIRARIPFYGSYTETDPAKVAEEGINKFKKEKFDIIIVDTSGRHHQEEELFQEMIEISNVIKPNQTIMVLDASIGQAAEQQSKAFKESSDFGAIILTKMDGHARGGGAISAVAATNTPIIFIGTGEHIHDLEKFSPKSFISKLLGIGDIESLFEQLQTVSNKEDAKATMENIQKGKFTLLDFKKQMQTIMKMGPLSNIAQMIPGMSNMMNQVGEEETSQKMKKMVYVLDSMTKEELESDGRMFIEEPTRMVRVAKGSGTSVFEVEMILMQQQMMARMAQTATQQQPGAPGANARMPGMPNMPGMPNMPGMPNMPGMPKVTPQMMQQAQQKLKQNPGLMQNMMNMFGGGMGGGMGGGMPDMNEMMKMMQDPQMQQMAKQFGMG
# partner: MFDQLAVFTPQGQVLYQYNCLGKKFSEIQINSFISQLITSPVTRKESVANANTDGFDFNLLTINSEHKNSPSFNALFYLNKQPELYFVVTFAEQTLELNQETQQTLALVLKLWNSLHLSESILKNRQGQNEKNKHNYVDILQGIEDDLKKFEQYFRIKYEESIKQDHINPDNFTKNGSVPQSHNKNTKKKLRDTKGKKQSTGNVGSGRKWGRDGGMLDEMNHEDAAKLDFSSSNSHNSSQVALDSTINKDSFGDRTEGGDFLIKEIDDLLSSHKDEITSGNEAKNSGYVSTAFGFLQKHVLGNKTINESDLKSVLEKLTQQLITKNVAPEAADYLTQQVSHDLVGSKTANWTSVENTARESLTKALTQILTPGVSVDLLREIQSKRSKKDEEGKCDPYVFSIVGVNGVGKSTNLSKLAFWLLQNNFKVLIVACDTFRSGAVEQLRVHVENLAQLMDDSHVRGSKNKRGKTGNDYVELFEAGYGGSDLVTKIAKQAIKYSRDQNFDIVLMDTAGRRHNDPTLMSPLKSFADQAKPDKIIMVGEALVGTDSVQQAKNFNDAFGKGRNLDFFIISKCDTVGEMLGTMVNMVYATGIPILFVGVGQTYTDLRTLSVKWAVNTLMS
# Variants of: B1
# Settings: with srpra_human SRPRA
row,effect of a mutation on the interaction,Variant
1,disrupting interaction strength,G226E
2,decreasing interaction strength,T115A

# Variants of: B2
# Settings: with srpr_yeast SRP101, P32916
row,effect of a mutation on the interaction,Variant
1,disrupting interaction strength,MVLADLGKRINSAVNNAISNTQDDFTTSVDVMLKGIVTALLESDVNIALVSKLRNNIRSQLLSENRSEKSTTNAQTKKLIQKTVFDELCKLVTCEGSEEKAFVPKKRKTNIIMFVGLQGSGKTTSCTKLAVYYSKRGFKVGLVCADTFRAGAFDQLKQNAIRARIPFYGSYTETDPAKVAEEGINKFKKEKFDIIIVDTSGRHHQEEELFQEMIEISNVIKPNQTIMVLDASIEQAAEQQSKAFKESSDFGAIILTKMDGHARGGGAISAVAATNTPIIFIGTGEHIHDLEKFSPKSFISKLLGIGDIESLFEQLQTVSNKEDAKATMENIQKGKFTLLDFKKQMQTIMKMGPLSNIAQMIPGMSNMMNQVGEEETSQKMKKMVYVLDSMTKEELESDGRMFIEEPTRMVRVAKGSGTSVFEVEMILMQQQMMARMAQTATQQQPGAPGANARMPGMPNMPGMPNMPGMPNMPGMPKVTPQMMQQAQQKLKQNPGLMQNMMNMFGGGMGGGMGGGMPDMNEMMKMMQDPQMQQMAKQFGMG [G234E]
